Results on five molecules are retold here after patent publication US20190321456A1 (NATIONAL HEALTH RESEARCH INSTITUTES, published 2019).

The chains are these.
T1: recombinant ovalbumin (OVA) (Gallus gallus (Chicken), UniProt P01012 1-386)
T1 sequence: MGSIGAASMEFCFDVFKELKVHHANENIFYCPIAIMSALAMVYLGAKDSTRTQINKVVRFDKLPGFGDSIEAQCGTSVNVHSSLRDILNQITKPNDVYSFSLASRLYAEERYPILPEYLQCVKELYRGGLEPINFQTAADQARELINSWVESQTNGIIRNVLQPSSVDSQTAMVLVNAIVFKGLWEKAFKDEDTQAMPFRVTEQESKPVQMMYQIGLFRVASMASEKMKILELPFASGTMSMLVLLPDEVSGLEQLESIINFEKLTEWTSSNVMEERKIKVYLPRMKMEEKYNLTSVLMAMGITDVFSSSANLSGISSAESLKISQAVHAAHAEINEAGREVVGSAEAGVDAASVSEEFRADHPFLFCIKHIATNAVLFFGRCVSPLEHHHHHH

B1: biotin-conjugated recombinant FcγRIIb (receptor)
chain: APPKAVLKLEPQWINVLQEDSVTLTCRGTHSPESDSIQWFHNGNLIPTHTQPSYRFKANNNDSGEYTCQTGQTSLSDPVHLTVLSEWLVLQTPHLEFQEGETIVLRCHSWKDKPLVKVTFFQNGKSKKFSRSDPNFSIPQANHSHSGDYHCTGNIGYTLYSSKPVTITVQAP
modifications: biotin-conjugated
B2: biotin-conjugated recombinant FcγRIIa-H131 (receptor)
chain: AAPPKAVLKLEPPWINVLQEDSVTLTCQGARSPESDSIQWFHNGNLIPTHTQPSYRFKANNNDSGEYTCQTGQTSLSDPVHLTVLSEWLVLQTPHLEFQEGETIMLRCHSWKDKPLVKVTFFQNGKSQKFSHLDPTFSIPQANHSHSGDYHCTGNIGYTLFSSKPVTITVQVPSMGSSSPMGI
modifications: biotin-conjugated
notes: The H131 allotype name implies the human receptor
B3: biotin-conjugated recombinant FcγRI (receptor)
chain: QVDTTKAVITLQPPWVSVFQEETVTLHCEVLHLPGSSSTQWFLNGTATQTSTPSYRITSASVNDSGEYRCQRGLSGRSDPIQLEIHRGWLLLQVSSRVFTEGEPLALRCHAWKDKLVYNVLYYRNGKAFKFFHWNSNLTILKTNISHNGTYHCSGMGKHRYTSAGISVTVKELFPAPVLNASVTSPLLEGNLVTLSCETKLLLQRPGLQLYFSFYMGSKTLRGRNTSSEYQILTARREDSGLYWCEAATEDGNVLKRSPELELQVLGLQLPTP
modifications: biotin-conjugated
B4: OVA-FLIPr fusion protein (other)
chain: MGSIGAASMEFCFDVFKELKVHHANENIFYCPIAIMSALAMVYLGAKDSTRTQINKVVRFDKLPGFGDSIEAQCGTSVNVHSSLRDILNQITKPNDVYSFSLASRLYAEERYPILPEYLQCVKELYRGGLEPINFQTAADQARELINSWVESQTNGIIRNVLQPSSVDSQTAMVLVNAIVFKGLWEKAFKDEDTQAMPFRVTEQESKPVQMMYQIGLFRVASMASEKMKILELPFASGTMSMLVLLPDEVSGLEQLESIINFEKLTEWTSSNVMEERKIKVYLPRMKMEEKYNLTSVLMAMGITDVFSSSANLSGISSAESLKISQAVHAAHAEINEAGREVVGSAEAGVDAASVSEEFRADHPFLFCIKHIATNAVLFFGRCVSPGGGGSGGGGSGGGGSFFSYEWKGLEIAKNLADQAKKDDERIDKLMKESDKNLTPYKAETVNDLYLIVKKLSQGDVKKAVVRIKDGGPRDYYTFDLTRPLEENRKNIKVVKNGEIDSIYWDLEHHHHHH
notes: Expressed in E. coli from pET-22b(+) and purified by IMAC; also called recombinant OVA-FLIPr fusion protein
B5: OVA-FLIPr-like fusion protein (other)
chain: MGSIGAASMEFCFDVFKELKVHHANENIFYCPIAIMSALAMVYLGAKDSTRTQINKVVRFDKLPGFGDSIEAQCGTSVNVHSSLRDILNQITKPNDVYSFSLASRLYAEERYPILPEYLQCVKELYRGGLEPINFQTAADQARELINSWVESQTNGIIRNVLQPSSVDSQTAMVLVNAIVFKGLWEKAFKDEDTQAMPFRVTEQESKPVQMMYQIGLFRVASMASEKMKILELPFASGTMSMLVLLPDEVSGLEQLESIINFEKLTEWTSSNVMEERKIKVYLPRMKMEEKYNLTSVLMAMGITDVFSSSANLSGISSAESLKISQAVHAAHAEINEAGREVVGSAEAGVDAASVSEEFRADHPFLFCIKHIATNAVLFFGRCVSPGGGGSGGGGSGGGGSFFSYEWKGLEIAKNLADQAKKDDERADKLIKEADEKNEHYKGKTVEDLYVIAKKMGKGNTIAVVKIKDGGKNGYYTFDITRPLEEHRKNIPVVKNGEIDSITWYLEHHHHHH
notes: Expressed in E. coli from pET-22b(+) and purified by IMAC; also called recombinant OVA-FLIPr-like fusion protein

Assay [1] addresses T1, recombinant ovalbumin (OVA). As to the kind of experiment: ELISA, plate coated with recombinant protein at 1 µg/mL, serial dilution of biotin-conjugated FcγR, streptavidin-HRP.
For assay [2], the target named is B2. As to the kind of experiment: ELISA, coated fusion protein, biotin-conjugated FcγR in solution.
In assay [3] the target is T2, biotin-conjugated recombinant FcγRIIIa-V158 (UniProt P08637 17-208).
T2 construct: The V158 allotype name implies the human receptor
Described as above.

Assay [4] addresses T3, biotin-conjugated recombinant FcγRIIIa-F158 (UniProt P08637 17-208, biotin-conjugated).
T3 construct: The F158 allotype name implies the human receptor
The assay is described as above.

T3 sequence (P08637 17-208 limits assumed): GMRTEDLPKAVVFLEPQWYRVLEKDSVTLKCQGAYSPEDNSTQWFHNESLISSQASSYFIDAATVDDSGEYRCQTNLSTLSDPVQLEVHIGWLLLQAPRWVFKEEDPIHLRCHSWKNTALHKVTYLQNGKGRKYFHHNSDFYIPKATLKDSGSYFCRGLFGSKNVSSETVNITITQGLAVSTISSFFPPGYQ
T2 sequence (P08637 17-208 F176V limits assumed): as the sequence (P08637 17-208 limits assumed) above, with F160V counted along it

Consider B1, for which the binding result in assay [1] was “no binding”.

For B2, in assay [1], the binding result is on record as “no binding”.

B3: in assay [1], the binding result was “no binding”.

Take B4: the binding result in assay [2], in assay [3] and in assay [4] was “binds” in each case.

Regarding B5, the binding result in assay [2], in assay [3] and in assay [4] was “binds” in each case.
